Experiment [1] addresses HLA-A*69:01. Put plainly: IEDB peptide-MHC binding, purified MHC/direct/fluorescence; filed as Kd, often an IC50 or EC50 that approximates it; ≥ and ≤ were set here for values at or beyond the usual limits of such assays.
In experiment [2] the target is HLA-A*02:01. The experiment is described as above.
Experiment [3] deals with HLA-A*03:01. The description is as above. As to conditions: source organism: Mycobacterium tuberculosis.
For experiment [4], the target named is HLA-A*01:01. Description: IEDB peptide-MHC binding, purified MHC/competitive/radioactivity; filed as Kd, often an IC50 or EC50 that approximates it; ≥ and ≤ were set here for values at or beyond the usual limits of such assays.
The target in experiment [5] is HLA-A*30:02. Described as above.
Experiment [6] addresses HLA-A*24:02. Described as above.
In experiment [7] the target is HLA-A*26:01. Described as above.
The target in experiment [8] is HLA-A*29:02. The description is as above.
Experiment [9] has as its target HLA-A*23:01. Described as above.
Experiment [10] deals with HLA-A*30:01. The description is as above.
Experiment [11] addresses HLA-B*44:02. The description is as above.
The target of experiment [12] is HLA-B*15:01. Put plainly: IEDB peptide-MHC binding, purified MHC/direct/fluorescence; filed as Kd, often an IC50 or EC50 that approximates it; ≥ and ≤ were set here for values at or beyond the usual limits of such assays. The settings on record: source organism: Mycobacterium tuberculosis variant bovis.
Experiment [13] has as its target HLA-A*02:06. Description: IEDB peptide-MHC binding, purified MHC/competitive/radioactivity; filed as Kd, often an IC50 or EC50 that approximates it; ≥ and ≤ were set here for values at or beyond the usual limits of such assays. As to conditions: source organism: Dengue virus 2 Jamaica/1409/1983.
Experiment [14] concerns the target HLA-A*01:01. Description: IEDB peptide-MHC binding, purified MHC/direct/fluorescence; filed as Kd, often an IC50 or EC50 that approximates it; ≥ and ≤ were set here for values at or beyond the usual limits of such assays. As to conditions: source organism: Giardia lamblia ATCC 50803.
Where [15] appears, read: source organism: Serratia proteamaculans.
Where [16] appears, read: source organism: Mammarenavirus machupoense.
[17] abbreviates: source organism: SARS coronavirus Tor2.
The mark [18] stands for this setting: source organism: Dengue virus 4 Philippines/H241/1956.
[19] abbreviates: source organism: Dengue virus 1 Brazil/97-11/1997.
The mark [20] stands for this setting: source organism: Dengue virus 3 Martinique/1243/1999.
Where [21] appears, read: source organism: Dengue virus 2 Jamaica/1409/1983.
Where [22] appears, read: source organism: Encephalitozoon cuniculi.
Where [23] appears, read: source organism: Lymphocytic choriomeningitis virus (strain Armstrong).
Where [24] appears, read: source organism: Mammarenavirus lassaense.

Bounds are passed on as bounds.

Regarding GMPNWCVSI, the equilibrium dissociation constant (Kd) in experiment [1] (setting [15]) is 3410 nM; in [2] (setting [15]), 24.7 nM.

Sequence VLIDAGLPK had a Kd in [3] of 319 nM.

In experiment [2] (source organism: Homo sapiens), ALPPPPPPP displayed a dissociation constant (Kd) of 12700 nM.

As to WIEFTNFKV, the Kd in experiment [4] (setting [16]) was at least 78100 nM; in experiment [5] (setting [16]), at least 49900 nM; in [6] (setting [16]), at least 77500 nM; in experiment [7] (setting [16]), at least 77900 nM; in experiment [8] (setting [16]), 8070 nM; in experiment [9] (setting [16]) it was at least 77700 nM.

For the sequence FYTTTGIGY, the Kd is 242 nM in experiment [4] (setting [17]); at least 93800 nM in [5] (setting [17]); at least 45800 nM in experiment [6] (setting [17]); 153 nM in experiment [7] (setting [17]); at least 46200 nM in experiment [8] (setting [17]); at least 60600 nM in [9] (setting [17]).

Take VTARWLWGFL: the dissociation constant Kd in experiment [4] (source organism: Dengue virus 1 Singapore/S275/1990) stood at 8660 nM.

Take FVSLAIDAY: the Kd was 2450 nM in experiment [4] (setting [17]); 897 nM in [5] (setting [17]); 17300 nM in experiment [6] (setting [17]); 1730 nM in experiment [7] (setting [17]); 21.6 nM in [8] (setting [17]); at least 28800 nM in [9] (setting [17]).

As for TSETFSMGL, in experiment [4] (setting [18]), the Kd worked out at 7690 nM.

Consider EWSVATFYL, for which the Kd in experiment [4] (setting [17]) is at least 78100 nM; in experiment [5] (setting [17]), at least 29700 nM; in experiment [6] (setting [17]) it was 1780 nM; in [7] (setting [17]), at least 45400 nM; in experiment [8] (setting [17]), at least 59400 nM; in experiment [9] (setting [17]), 5500 nM.

In the case of KVRSNAAIG, the Kd in [10] (setting [19]) turned out to be 13.6 nM.

On to GDNALKINW, for which the dissociation constant (Kd) in experiment [11] (setting [20]) was 150 nM.

WQGDTGITY: the equilibrium dissociation constant (Kd) in experiment [12] was found to be 799 nM.

Regarding FTDENKWKS, the Kd in experiment [4] (setting [21]) is 5260 nM.

Take FMRSISDDA: the values for the dissociation constant (Kd) in experiment [1] (setting [22]) and in experiment [2] (setting [22]) were at least 20000 nM and 168 nM, respectively.

On to FTDPASIAA, for which the dissociation constant Kd in experiment [4] (setting [21]) was 7.26 nM; in experiment [13], 32.6 nM.

Turning to DYFESFSSFF, the dissociation constant Kd amounted to 11 nM in [6] (setting [23]), 0.356 nM in experiment [8] (setting [23]) and 4.72 nM in [9] (setting [23]).

As to ICGGTIDAY, the Kd was at least 40200 nM in experiment [4] (setting [24]); 68.6 nM in [5] (setting [24]); at least 77500 nM in [6] (setting [24]); at least 77900 nM in [7] (setting [24]); at least 21800 nM in experiment [8] (setting [24]); at least 77700 nM in experiment [9] (setting [24]).

As for HLRDQSIKI, in [10] (source organism: Vaccinia virus WR), the Kd is 15.2 nM.

Regarding GGMLVRNPLS, the equilibrium dissociation constant (Kd) in [10] (setting [19]) came to 4270 nM.

In the case of ITTATRCPTQ, the Kd in [10] (setting [18]) was 9440 nM.

In experiment [14], KVDWNQFTY returned a Kd of 2 nM.

On to YDQENPYRTW, for which, in [11] (setting [18]), the Kd is 156 nM.

In the case of RYMGEDGCWY, the Kd in experiment [5] (setting [20]) is at least 69700 nM; in [6] (setting [20]), 828 nM.

For the sequence FSNSGADVLY, the Kd in experiment [4] (setting [17]) was 15.3 nM; in experiment [5] (setting [17]), 9.14 nM; in experiment [6] (setting [17]) it was at least 70300 nM; in experiment [7] (setting [17]) it was 3560 nM; in experiment [8] (setting [17]), 74.9 nM; in experiment [9] (setting [17]), at least 70000 nM.

As for GVYPMSIPAT, the Kd in experiment [10] (setting [19]) amounted to 10400 nM.

LCANEYTGNY: the Kd in experiment [4] (setting [17]) is 445 nM; in experiment [5] (setting [17]) it was 80.4 nM; in [6] (setting [17]), at least 70300 nM; in experiment [7] (setting [17]), at least 29900 nM; in experiment [8] (setting [17]) it was 98.3 nM; in [9] (setting [17]), at least 70000 nM.

Turning to KARNTPFNM, in experiment [10] (source organism: Dengue virus 2 Peru/IQT2913/1996), the Kd stood at 169 nM.

As to AESLVGFLFY, the Kd in experiment [4] (setting [16]) is at least 52100 nM; in experiment [5] (setting [16]), 450 nM; in [6] (setting [16]) it was at least 70300 nM; in experiment [7] (setting [16]), at least 69700 nM; in experiment [8] (setting [16]), 97.6 nM; in [9] (setting [16]), at least 66200 nM.
